Changes are numbered by the printed parent chain.
Columns and labels:
[1] = molecular target: T1, biotinylated human IL-6R (shIL6R-Avitag) (human, UniProt P08887 20-357, biotinylated at the C-terminal AviTag sequence by biotin ligase (BirA)); assay: phage ELISA, plate coated with biotinylated human IL-6R, detection with HRP anti-M13 antibody, absorbance at 450 nm
T1 construct: It was captured on a StreptaWell plate in the phage ELISA; its preparation is described in (3-3); also called biotinylated hIL-6R
T1 sequence: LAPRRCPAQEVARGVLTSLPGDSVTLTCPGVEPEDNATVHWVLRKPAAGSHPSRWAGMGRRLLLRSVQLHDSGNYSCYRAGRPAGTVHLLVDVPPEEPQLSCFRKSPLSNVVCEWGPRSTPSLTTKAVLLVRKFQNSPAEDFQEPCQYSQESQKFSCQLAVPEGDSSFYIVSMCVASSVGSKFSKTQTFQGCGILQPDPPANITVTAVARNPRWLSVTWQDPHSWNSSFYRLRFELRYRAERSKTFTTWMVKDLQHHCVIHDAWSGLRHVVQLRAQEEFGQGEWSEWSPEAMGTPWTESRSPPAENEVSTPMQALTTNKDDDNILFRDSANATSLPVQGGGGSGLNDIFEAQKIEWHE
Method: The phage ELISA method was carried out to confirm Fab display on the produced phage and to confirm the ability to bind to the antigen. StreptaWell 96-well microtiter plate (F. Hoffmann-La Roche, Ltd.) was coated by the addition of 100 μL of PBS containing Goat anti-Human Kappa Biotin antibody (EY Laboratories, Inc.) or biotinylated human IL-6R. Each well of the plate was washed with 0.1×TBST (0.1×TBS containing 0.1% Tween 20) to remove the antigen. Then, the plate was blocked for 1 hour or longer by the addition of 250 μL of 0.02% skim milk-0.1×TBS (0.1×TBS containing 0.02% skim milk) to the well. […] After washing with 0.1×TBST, an HRP-conjugated anti-M13 antibody (Amersham Pharmacia Biotech) diluted with 0.1×TBST was added to each well, and the plate was incubated for 1 hour. After washing with 0.1×TBST, TMB single solution (Zymed Laboratories Inc.) was added to each well. The color reaction of the solution was further terminated by the addition of sulfuric acid. Then, the absorbance was measured at 450 nm.

[2] = molecular target: T2, soluble human IL-6R (human, UniProt P08887 20-357); assay: biolayer interferometry (Octet RED384), antibody on Protein G biosensor, soluble human IL-6R in solution, 120 s association and 120 s dissociation [a]
T2 construct: Analyte in the Octet experiments; also called hIL-6R; soluble hIL-6R
T2 sequence: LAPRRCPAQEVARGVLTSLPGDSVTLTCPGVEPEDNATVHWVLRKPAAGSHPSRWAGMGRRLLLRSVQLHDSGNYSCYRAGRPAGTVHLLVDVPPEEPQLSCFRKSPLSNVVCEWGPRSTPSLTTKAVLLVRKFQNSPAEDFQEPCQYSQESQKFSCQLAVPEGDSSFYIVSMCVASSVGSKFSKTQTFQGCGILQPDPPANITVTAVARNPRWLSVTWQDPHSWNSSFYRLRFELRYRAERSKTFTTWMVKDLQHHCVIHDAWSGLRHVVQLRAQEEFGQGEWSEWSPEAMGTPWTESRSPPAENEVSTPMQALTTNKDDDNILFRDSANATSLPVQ
Method: Each antibody (6RNH-2_02, 6RNH-2_37, 6RNH-3(2)_32, and 6RNH-2_42) obtained in the paragraph (4-1) was evaluated for its binding activity against soluble human IL-6R using Octet RED384 (forteBIO). The binding evaluation was conducted using HBS-EP+ Buffer (GE Healthcare Japan Corp.) as a buffer.
After binding of the antibody to Protein G Biosensors (forteBIO), soluble human IL-6R was allowed to interact with the antibody on the biosensor through contact therebetween for 120 seconds, and subsequently contacted with the buffer for 120 seconds to measure the antibody-antigen interaction. Then, the biosensor was regenerated through contact with 10 mmol/L glycine-HCl (pH 1.5). The measurement was conducted at 30° C.

[3] = molecular target: T3, human plexin A1 protein sema domain (from glutamic acid at position 28 to serine at position 514) tagged at … (human, UniProt Q9UIW2 28-514); assay: SPR, Biacore T200; antibody held by Protein A/G on CM4 chip, sema domain as analyte
T3 construct: also called human plexin A1 sema domain
T3 sequence: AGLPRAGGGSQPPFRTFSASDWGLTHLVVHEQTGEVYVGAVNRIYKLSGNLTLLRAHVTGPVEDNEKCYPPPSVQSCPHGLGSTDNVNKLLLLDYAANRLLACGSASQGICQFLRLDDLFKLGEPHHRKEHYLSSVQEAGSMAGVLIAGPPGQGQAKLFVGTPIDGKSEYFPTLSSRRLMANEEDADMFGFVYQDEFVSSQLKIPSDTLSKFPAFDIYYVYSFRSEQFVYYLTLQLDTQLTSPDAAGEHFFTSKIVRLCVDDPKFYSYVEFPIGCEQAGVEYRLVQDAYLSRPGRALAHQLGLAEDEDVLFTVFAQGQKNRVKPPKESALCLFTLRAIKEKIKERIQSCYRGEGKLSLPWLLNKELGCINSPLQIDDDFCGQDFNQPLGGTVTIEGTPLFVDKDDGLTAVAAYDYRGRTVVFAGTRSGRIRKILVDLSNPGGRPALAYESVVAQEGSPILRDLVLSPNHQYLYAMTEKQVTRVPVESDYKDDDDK
Method: (§1) Each antibody obtained in the paragraph (10-1) was evaluated for its binding activity against the antigen by surface plasmon resonance (SPR) analysis.
(§2) In the SPR analysis, the antibody was analyzed using Biacore T200 (GE Healthcare Japan Corp.). The anti-human plexin A1 antibody was immobilized onto the surface of Sensor Chip CM4 using Recombinant Protein A/G (Thermo Fisher Scientific Inc.) and Amine Coupling Kit (GE Healthcare Japan Corp.). The antigen used was a human plexin A1 protein sema domain (from glutamic acid at position 28 to serine at position 514) tagged at the C terminus of the protein with FLAG tag. The antigen was prepared as follows: an expression vector carrying a cDNA corresponding to the human plexin A1 sema domain was transferred to FreeStyle 293 cells. After culture, the obtained culture solution was passed through an anti-FLAG-M2 antibody-immobilized affinity column. A fraction eluted with the FALG peptide was purified by gel filtration. The obtained antigen was serially diluted with 20 mM ACES, 150 mM NaCl, 0.05% polysorbate 20, and 1.2 mM CaCl₂ (pH 7.4) and added to the sensor chip at a flow rate of 30 μL/min. In this assay system, the dissociation constant (KD) between the human plexin A1 protein and the anti-human plexin A1 antibody was calculated using data analysis software (BIA T200 Evaluation software ver. 2).

[4] = molecular target: T3, human plexin A1 protein sema domain …; assay: SPR, Biacore T200; the parent antibody itself (control)
Method: as §1, §2

[5] = molecular target: T3, human plexin A1 protein sema domain …; assay: SPR, Biacore T200; KD against parent antibody hPANLB2-3_264
Method: as §1, §2

[6] = molecular target: T3, human plexin A1 protein sema domain …; assay: SPR, Biacore T200; KD against parent antibody hPANLB2-3_359
Method: as §1, §2

B1: PF1 Fab displayed on phage (PF1 H chain Fd-g3p fusion with PF1 L chain) (Fab, V domains shown)
VH: QVQLQESGPGLVKPSETLSLTCAVSGYSISDDHAWSWVRQPPGEGLEWIGYISYSGITNYNPSLKGRVTISRDTSKNQFSLKLSSVTAADTAAYYCARVLARITAMDYWGEGTLVTVSS
VL: DIQMTQSPSSLSASVGDSVTITCQASQDISSYLNWYQQKPGKAPELLIYYGSELHSGVPSRFSGSGSGTDFTFTISSLEAEDAATYYCGQGNRLPYTFGQGTKVEIER
notes: also called Fab-displaying phage; phage produced with M13KO7TC-PF1L; not shown: linker peptide and gene 3 protein (g3p) fused to the C terminus of the Fd
B1: binds [1].

B2: 6RNH-2_02 (antibody, human IgG1, kappa, V domains shown)
VH: QVQLVETGGGMVQPGGSLRLSCAASGFMFSTYAMSWVRQASGKGLEWVSLISGTGSVTKYADSVKGRFTISRDNSKNMVYLQMNNLGADDTAVYYCANSDYGDYARFDHWGQGTLVTVSS
VL: B1 VL
notes: IgG with the PF1 L chain, purified on Protein A
B2: binds [2].

B3: hPANLB2-3_264 (antibody, human IgG1, lambda, V domains shown)
VH: QVQLQQSGPGLVKPSQTLSLTCAISGDSVSSNSAAWNWIRQSPSRGLEWLGRTYYRSKWYNDYAVSVKSRITINPDTSKNQFSLQLNSVTPEDTAVYYCARDRGYSYGFDYWGQGTLVTVSS
VL: SYLLTQPPSVSVSPGQTASITCSGDKLGQKFVSWYQQRPGQSPVLVIYQDTKRPSGIPERFSGSNSGNTATLTISGTQAMDEADYYCQAWDSSTAGVFGGGTNLTVLG
notes: Parent anti-plexin A1 antibody, IgG
B3 was tested, and the Kd [3] was 173 nM and the “Relative KD improvement” value [4] was 1 fold.

B4: PLR4H264#061 (antibody, human IgG1, lambda, V domains shown)
VH: B3 VH
VL: SYELTQPPSVAVSPGQTASITCSGHKLGEKYASWYQQKPGQSPVLVIYQDTKRPSGIPERFSGSNSGNTATLTISGTQAMDEADYYCQAWDSSSVCVFGTGTKVTVLG
notes: IgG from the 264H-NL library
For B4, the Kd [3] was 41 nM and the “Relative KD improvement” value [5] was 4.2 fold.

B5: PLR3H264#022 (antibody, human IgG1, lambda, V domains shown)
VH: B3 VH
VL: SYVLTQPRSVSVSPGQTTRITCSGQNLGEKYISWYRQKPGQSPEVLIYEDKRRPSGIPERISGANSGGTATLTISGTQAMDEADYFCQAWVSSTEGVFGGGTRLTVLR
notes: IgG from the 264H-NL library
With B5 the Kd [3] was 56.9 nM and the “Relative KD improvement” value [5] was 3 fold.

B6: PLR2H264#002 (antibody, human IgG1, lambda, V domains shown)
VH: B3 VH
VL: B3 VL with L3E, Q29N, F31Y, Q37R, T51S, A79S, D91Y, T94S, A95V, N103R
notes: IgG from the 264H-NL library
With B6 the Kd [3] was 138 nM and the “Relative KD improvement” value [5] was 1.3 fold.

B7: phage produced by the H chain (PF1H)-expressing phagemid vector and the negative control helper phage M13KO7TC (other)
heavy: QVQLQESGPGLVKPSETLSLTCAVSGYSISDDHAWSWVRQPPGEGLEWIGYISYSGITNYNPSLKGRVTISRDTSKNQFSLKLSSVTAADTAAYYCARVLARITAMDYWGEGTLVTVSSASTKGPSVFPLAPSSKSTSGGTAALGCLVKDYFPEPVTVSWNSGALTSGVHTFPAVLQSSGLYSLSSVVTVPSSSLGTQTYICNVNHKPSNTKVDKK
notes: Control phage without an L chain; not shown: linker peptide and gene 3 protein (g3p)
B7: no binding [1].

B8: hPANLB2-3_342 (antibody, human IgG1, lambda, V domains shown)
VH: EVQLVQSGAEVKKPGASVKVSCKASGYTFTSYGISWVRQAPGQGLEWMGWISAYNGNTNYAQKLQGRVTMTTDTSTSTAYMELRSLRSDDTAVYYCARHAGYYYGMDVWGKGTMVTVSS
VL: B4 VL with A11S, H25D, T51S, T69M, M80V, A89T, S93N, S94T, V95A, C96F
notes: as for B3
With B8 the Kd [3] was 34.5 nM and the “Relative KD improvement” value [4] was 1 fold.

B9: PLR2H359#087 (antibody, human IgG1, lambda, V domains shown)
VH: QVQLVQSGAEVKKPGASVKVSCKASGYTFTSYYMHWVRQAPGQGLEWMGIINPSGGSTSYAQKFQGRVTMTRDTSTSTVYMELSSLRSEDTAVYYCARAPGHYYYGMDVWGQGTTVTVSS
VL: SSELTQPPSMSVSPGQTASISCSGDRLGEKYASWYQQKPGQSPVLVIYQDNKRPSGIPERFSGSNSGNTATLTISGTQAIDEADYYCQAWDSNSAYVFGTGTKVTVLG
notes: IgG from the 359H-NL library
For B9, the “Relative KD improvement” value [6] was 2.9 fold and the Kd [3] was 4.62 nM.

B10: hPANLB2-3_359 (antibody, human IgG1, lambda, V domains shown)
VH: B9 VH
VL: SYELTQPPSVSVSPGQTASITCSGDKVGEKYASWYQQRPGQSPVLVIYQDTKRPSGIPERFSGSNSGNTATLTISGTQAIDDADYYCQAWDNSAYVIFGGGTKLTVLG
notes: as for B3
With B10 the Kd [3] was 13.5 nM and the “Relative KD improvement” value [4] was 1 fold.

B11: PLR2H359#062 (antibody, human IgG1, lambda, V domains shown)
VH: B9 VH
VL: SYELTQPPSLSVSPGQTASITCSGDKLGEKYACWYQQKPGQSPALVIYQDTKRPSGIPERFSGSNSGNTATLTISGTQAMDEADYSCQAWDTNTGEVVFGGGTKLTVLG
notes: IgG from the 359H-NL library
B11 was tested, and the “Relative KD improvement” value [6] was 3.4 fold and the Kd [3] was 3.93 nM.
